{"source": "patent US20250084126A1", "about": "“PEPTIDE AND COMPOSITION” (OSAKA UNIVERSITY, priority 2021, published 2025)", "molecules": {"B1": {"name": "S100-A8: recombinant of the protein from which the peptide was derived (PROSPEC); UniProtKB-P05109 (protein, UniProt P05109 1-93, looked up)", "Protein S100-A8": "MLTELEKALNSIIDVYHKYSLIKGNFHAVYRDDLKKLLETECPQYIRKKGADVWFKELDINTDGAVNFQEFLILVIKMGVAAHKKSHEESHKE"}, "B2": {"name": "S100-A9: recombinant of the protein from which the peptide was derived (PROSPEC); UniProtKB-P06702 (protein, UniProt P06702 1-114, looked up)", "Protein S100-A9": "MTCKMSQLERNIETIINTFHQYSVKLGHPDTLNQGEFKELVRKDLQNFLKKENKNEKVIEHIMEDLDTNADKQLSFEEFIMLMARLTWASHEKMHEGDEGPGHHHKPGLGEGTP"}}, "key": {"hDPSCs [1]": {"tested_on": "hDPSCs", "assay": "LDH-assay cytotoxicity to hDPSCs", "assay_type": "cell-based, human", "conditions": "for cytotoxicity compared to the control (LDH-assay): 2 days, control PBS, p<0.05; for cytotoxicity, overall conclusion: 0.1-100 μg/ml, versus PBS", "protocol": "The hDPSCs were seeded in α-MEM medium containing 10% FBS added with the four peptides at concentrations of 0.1, 1, 10, and 100 μg/ml in a 96 well plate at 5,000 cells/well and cultured at 37° C. for 2 days in a 5% CO2 gas phase. For toxicity test, culture supernatant was collected and LDH-assay was performed using LDH Cytotoxicity Detection Kit (Takara Bio Inc., Shiga). A reagent was added to the collected culture supernatant, and the culture supernatant was placed at 37° C. for 30 minutes in the 5% CO2 gas phase. The absorbance at 405 nm was then measured using the microplate reader (ARVO MX). To further evaluate the proliferative capacity, WST-1-assay was performed using Premix WST-1 Cell Proliferation Assay System (Takara Bio Inc.) after the cells had been continuously cultured for 1 day. The culture was added with a WST-1 reagent and allowed to stand for 30 minutes at 37° C. in the 5% CO2 gas phase. After shaking for 1 minute at room temperature, the absorbance at 450 nm was measured using the microplate reader (ARVO MX). A sample in which the PBS was added to the culture was used as a control, and the number of samples was 6 for each condition.\n(§1) The statistical significance test in the above experiment was performed using the One-way ANOVA and Tukey's test for a cytotoxicity test and Kruskal-Wallis-test for a cell proliferation test and a comparison of the amount of formed tertiary dentin in the direct pulp capping experiment, with a critical value of 5%."}, "hDPSCs [2]": {"tested_on": "hDPSCs", "assay": "Proteome analysis (LC-MS/MS) of proteins expressed by hDPSCs", "assay_type": "cell-based, human", "conditions": "0.1 mM, 7 days", "protocol": "The No. 28 peptide or the recombinant S100-A8, the protein from which the No. 28 peptide is derived, was applied to the hDPSCs to compare and quantify the proteins expressed by the hDPSCs by the LC-MS/MS. The hDPSCs were seeded in a 100 mm cell culture dish at 3,000,000 cells/plate in the mineralization induction medium containing each of the samples containing the No. 28 peptide or the S100-A8 at a concentration of 0.1 mM, and cultured at 37° C. in the 5% CO2 gas phase for 7 days. Then, plasma membrane and cytoplasmic proteins were extracted using a plasma membrane protein extraction kit (Cosmo Bio Co., Ltd., Tokyo). As a practical procedure, the hDPSCs were cultured for 7 days, collected with a scraper, added with Buffer A included in the kit, and left on ice for 10 minutes. The hDPSCs were then transferred into a microtube with a filter cartridge included in the kit and centrifuged at 14,000 rpm for 30 seconds. After discarding the cartridge and agitating for 10 seconds, the microtube was centrifuged at 3000 rpm for 1 minute and the supernatant was collected. The collected supernatant was then centrifuged at 14,000 rpm for 30 minutes to extract the cytoplasmic proteins separated in a supernatant and the plasma membrane proteins separated in pellet. As a control, the hDPSCs cultured in mineralization induction medium supplemented with the PBS were used.\nEach sample was analyzed by liquid chromatography using UltiMate 3000 Nano LC systems (Thermo Fisher Scientific, USA) and ESI-column (0.075×150 mm) (Thermo Fisher Scientific). A 0.1% formic acid aqueous solution containing acetonitrile was used as a mobile phase at a flow rate of 300 nL/min. The concentration of acetonitrile was 5% for the first 5 min, increased to 40% in 95 min, then increased at a constant rate for 2 min to 90%, and maintained for 5 min. The peptides were analyzed using Q-Exactive (Thermo Fisher Scientific). Identification and quantitative analysis of the proteins were performed by peptide mass fingerprinting using Mascot Distiller v2.5, Mascot Server v2.5 (Matrix Science, USA), and UniProt on obtained MS/MS spectra.\nIn addition, to evaluate changes in expression levels of the proteins, the following criteria were used to narrow down the identified plasma membrane-derived and cytoplasm-derived proteins among the samples.\n• Proteins whose measured values were higher in the S100-A8 group than in the control group • Proteins whose measured values in the peptide group are more than twice as high as those in the control group • Proteins whose measured values in both the peptide group and the S100-A8 group are equal to or greater than 1 (a.u.; arbitrary unit)\n• Proteins whose measured values were lower in the S100-A8 group than in the control group • Proteins whose measured values in the control group are more than twice as high as those in the peptide group • Proteins whose measured values in the control group are equal to or greater than 1 (a.u.; arbitrary unit)\nEach of the groups narrowed down by the above criteria was analyzed using Gene Ontology (GO) classification. The GO provides an internationally standardized GO Term, which is intended to describe biological functions. The GO Term is organized in a hierarchical structure, with the upper order representing general functions and the lower order representing more detailed functions. For example, there are three categories at the top: “Molecular function,” “Biological process,” and “Cellular component.”\nThe GO Term belonging to “Molecular function” and “Biological process” which represent their respective functions from the above classification were searched for the protein groups obtained in this experiment, and the functions characteristic to each protein group were examined."}, "exposed pulp": {"tested_on": "exposed pulp", "conditions": "rat in vivo, reported in Non Patent Literature 1; cited from earlier work"}, "pulp cells": {"tested_on": "pulp cells", "conditions": "reported in Non Patent Literature 1; cited from earlier work"}, "[3]": {"tested_on": "exposed pulp of rat molars", "assay": "Direct pulp capping experiment using Protein S100 family-derived peptide", "assay_type": "in vivo", "conditions": "4 weeks; for structure of the tertiary dentin compared to the samples treated with the peptides (HE staining): 1 μg/ml; for number of samples with tertiary dentin formation that completely sealed the exposed pulp region: micro-CT scoring, n=8 per condition, peptides 100 μg/ml, recombinant proteins 1 μg/ml, 20 μl in gelatin sponge; for closure of the surface of the exposed pulp (HE staining): representative samples with complete tertiary dentin formation", "protocol": "To evaluate the effect of the Protein S100 family-derived peptide on ability of forming of the tertiary dentin, a direct pulp capping experiment was performed on rat molars using a gelatin sponge (Spongel®) soaked with 20 μl of each PBS solution containing the No. 28, No. 47, No. 32, or No. 51 peptide at a concentration of 100 μg/ml using the same way as described in the section 1) of “Materials and Methods” of the section 1 of the section I above. PBS solution containing the S100-A8 (PROSPEC, Israel), the PBS solution containing the S100-A9 (PROSPEC), wherein the S100-A8 and S100-A9 are a recombinant of the protein from which the peptide was derived, at a concentration of 1 μg/ml, and the PBS solution alone were used as controls. After 4 weeks from the capping treatment, the micro-CT imaging and image analysis were performed on the tertiary dentin formed just below the exposed pulp. An evaluation method, in which the amount of formed tertiary dentin observed in histopathological images was scored, in the direct pulp capping experiment conducted by Okamoto et al. in the past, was applied to the micro-CT images in this study, and the evaluation was performed by scoring the formed tertiary dentin [Clinical Oral Investigations 2018, 22(8):2879-2887; Journal of Dentistry 2010, 38(10):828-837]. The evaluation was performed by one person, with a score of Grade 0 in cases where the tertiary dentin was formed in only one-third or less of the exposed pulp region, Grade 1 in cases where the tertiary dentin was formed in one-third to two-thirds of the exposed pulp region, Grade 2 in cases where the tertiary dentin was formed in two-thirds or more of the exposed pulp region, and Grade 3 in cases where the formed tertiary dentin was completely covering the exposed pulp region. In addition, the same micro-CT images were analyzed using the same way as described in the section 2) of “Materials and Methods” of the section 1 of the section I above to evaluate the volume of the formed tertiary dentin. HE staining was also performed using the same way as described in the section 3) of “Materials and Methods” of the section 1 of the section I above, and histopathological evaluation of the formation of the tertiary dentin was performed. The number of samples was 8 for each condition.\nas §1"}, "[4]": {"conditions": "mineralization induction medium, count for No. 28 peptide or S100-A8 jointly"}}, "note": "No end group written: not given here.", "data": [{"molecule": "NADKQLSFE [No. 51 peptide, Asn-Ala-Asp-Lys-Gln-Leu-Ser-Phe-Glu]", "values": [{"measurement": "cytotoxicity compared to the control (LDH-assay)", "setting": "hDPSCs [1]; 10 μg/ml", "result": "significantly lower cytotoxicity"}, {"measurement": "cytotoxicity compared to the control (LDH-assay)", "setting": "hDPSCs [1]; 100 μg/ml", "result": "significantly lower cytotoxicity"}, {"measurement": "cytotoxicity, overall conclusion", "setting": "hDPSCs [1]", "result": "comparable to that of the PBS"}]}, {"molecule": "NTDGAVNFQ [No. 32 peptide, Asn-Thr-Asp-Gly-Ala-Val-Asn-Phe-Gln]", "values": [{"measurement": "cytotoxicity compared to the control (LDH-assay)", "setting": "hDPSCs [1]; 1 μg/ml", "result": "significantly lower cytotoxicity"}, {"measurement": "cytotoxicity, overall conclusion", "setting": "hDPSCs [1]", "result": "comparable to that of the PBS"}]}, {"molecule": "KLLETECPQ [No. 28 peptide, Lys-Leu-Leu-Glu-Thr-Glu-Cys-Pro-Gln]", "values": [{"measurement": "cytotoxicity, overall conclusion", "setting": "hDPSCs [1]", "result": "comparable to that of the PBS"}, {"measurement": "cytotoxicity compared to the control (LDH-assay)", "setting": "hDPSCs [1]; all concentrations (0.1, 1, 10, 100 μg/ml)", "result": "significantly lower cytotoxicity"}]}, {"molecule": "B1", "values": [{"measurement": "expression levels of proteins promoting MAPK signaling pathway (MAP2K1, CDH2, NRAS, MAP1, CRK, PSMB7) versus control", "setting": "hDPSCs [2]; GO Term analysis", "result": "decreased"}, {"measurement": "expression levels of proteins promoting NFκB signaling pathway (FLOT1, 3KCR1, LYRIC, GJA1, S100A-13, NOL3) versus control", "setting": "hDPSCs [2]; GO Term analysis", "result": "more increased"}, {"measurement": "cytoplasm-derived proteins whose expression levels were more decreased than in the control", "setting": "hDPSCs [2]; [4]", "result": 67, "unit": "proteins"}, {"measurement": "cytoplasm-derived proteins whose expression levels were more increased than in the control", "setting": "hDPSCs [2]; [4]", "result": 250, "unit": "proteins"}, {"measurement": "plasma membrane-derived proteins whose expression levels were more decreased than in the control", "setting": "hDPSCs [2]; [4]", "result": 97, "unit": "proteins"}, {"measurement": "plasma membrane-derived proteins whose expression levels were more increased than in the control", "setting": "hDPSCs [2]; [4]", "result": 158, "unit": "proteins"}, {"measurement": "tertiary dentin induction in the direct pulp capping experiment", "setting": "exposed pulp", "result": "completely covers the surface of the exposed pulp"}, {"measurement": "effect on pulp cells in vitro", "setting": "pulp cells", "result": "activates proliferation, differentiation, and mineralization abilities"}, {"measurement": "structure of the tertiary dentin compared to the samples treated with the peptides (HE staining)", "setting": "[3]", "result": "sparse structure"}, {"measurement": "number of samples with tertiary dentin formation that completely sealed the exposed pulp region", "setting": "[3]", "result": 1, "unit": "samples"}, {"measurement": "closure of the surface of the exposed pulp (HE staining)", "setting": "[3]", "result": "completely closed by the formed tertiary dentin"}]}, {"molecule": "B2", "values": [{"measurement": "structure of the tertiary dentin compared to the samples treated with the peptides (HE staining)", "setting": "[3]", "result": "sparse structure"}, {"measurement": "number of samples with tertiary dentin formation that completely sealed the exposed pulp region", "setting": "[3]", "result": 2, "unit": "samples"}, {"measurement": "closure of the surface of the exposed pulp (HE staining)", "setting": "[3]", "result": "completely closed by the formed tertiary dentin"}]}]}
